Data published in patent US20140309404A1.
pKd: −log10 of the molar value.

Legend:
[1] = biological target: BMP-10; test: cell-based or functional assay
[2] = biological target: BMP-2; test: cell-based or functional assay
[3] = biological target: BMP-4; test: cell-based or functional assay
[4] = biological target: BMP-9; test: cell-based or functional assay
[5] = biological target: human BMP-5 (human) (UniProt P22003); test: cell-based or functional assay
[6] = biological target: human BMP-7 (human) (UniProt P18075); test: cell-based or functional assay
[7] = biological target: human BMP-6 (human) (UniProt P22004); test: cell-based or functional assay
[8] = biological target: human BMP-6 (human) (UniProt P22004); test: SPR (BIAcore), BMP-6 immobilised on CM4 chip, antibody injected, 37 C
[9] = biological target: human BMP-7 (human) (UniProt P18075); test: SPR (BIAcore), BMP-7 immobilised on CM4 chip, antibody injected, 37 C

human BMP-6 (human), sequence (P22004 382-513 limits assumed): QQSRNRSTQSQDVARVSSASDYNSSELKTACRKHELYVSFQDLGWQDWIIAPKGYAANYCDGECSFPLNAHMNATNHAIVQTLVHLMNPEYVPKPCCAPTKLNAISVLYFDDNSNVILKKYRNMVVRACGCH
human BMP-7 (human), sequence (P18075 293-431 limits assumed): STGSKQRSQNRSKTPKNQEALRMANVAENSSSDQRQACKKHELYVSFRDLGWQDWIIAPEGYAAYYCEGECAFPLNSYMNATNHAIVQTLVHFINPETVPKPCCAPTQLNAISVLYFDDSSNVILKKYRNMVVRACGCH
human BMP-5 (human), sequence (P22003 317-454 limits assumed): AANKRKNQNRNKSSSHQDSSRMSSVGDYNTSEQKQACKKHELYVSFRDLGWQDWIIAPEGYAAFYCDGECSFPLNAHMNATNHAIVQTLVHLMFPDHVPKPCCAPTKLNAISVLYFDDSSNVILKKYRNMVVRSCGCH

Work on human IgGPAA4 control (antibody) yielded a Mean % Inh at 1000 nM, BMP-10 induced Hep Luc Assay [1] of 5.4%, a Mean % Inh at 1000 nM, BMP-2 induced Hep Luc Assay [2] of 7.8% and a Mean % Inh at 1000 nM, BMP-4 induced Hep Luc Assay [3] of 4.2%. The Mean % Inh at 1000 nM, BMP-9 induced Hep Luc Assay [4] was 2.8%, the Mean % Inh at 1000 nM, BMP-5 induced Hep Luc Assay [5] was 2.5% and the Mean % Inh at 1000 nM, BMP-7 induced Hep Luc Assay [6] was -1.7%.
MAB507 (antibody) showed a Mean % Inh at 1000 nM, BMP-10 induced Hep Luc Assay [1] of -87.2%, a Mean % Inh at 1000 nM, BMP-2 induced Hep Luc Assay [2] of -50.6% and a Mean % Inh at 1000 nM, BMP-4 induced Hep Luc Assay [3] of -65.4%. For the same substance, the Mean % Inh at 1000 nM, BMP-9 induced Hep Luc Assay [4] was -76.1%, the Mean % Inh at 1000 nM, BMP-5 induced Hep Luc Assay [5] was -43.5% and the Geometric Mean IC50 (nM), BMP-6 induced Hep Luc Assay (hepcidin promoter luciferase, HepProm Luc cells) [7] was 22.1 nM. For the same substance, the Mean % Inh at 1000 nM, BMP-7 induced Hep Luc Assay [6] was 54.2%, the pKd [8] was 9.00 and the koff [8] was 0.000187 s⁻¹. The kon [8] was 187000 M⁻¹ s⁻¹, the pKd [9] was 7.63 and the koff [9] was 0.000793 s⁻¹. For the same substance, the kon [9] was 34200 M⁻¹ s⁻¹.
